The text below walks through data of PMC3176292, “Mutations in Protein-Binding Hot-Spots on the Hub Protein Smad3 Differentially Affect Its Protein Interactions and Smad3-Regulated Gene Expression” (PLoS ONE, 2011).

What all share (assay): co-IP; LUMIER: Renilla luciferase-Smad3 and Flag-tagged partner co-expressed with constitutively active Alk5 in HEK-293; Flag protein captured from cleared lysate (TNE: 10 mM Tris-HCl pH 7.8, 150 mM NaCl, 1 mM EDTA, 1% Igepal CA-630) on anti-Flag 96-well plates, 2 h at 4 °C; co-precipitated Renilla luciferase activity, TrxGA background subtracted, percent of wild-type Smad3
Details in all cases: partners not purified

Assay [1] addresses T1, Flag-SARA, full length (UniProt O95405 1-1425).
T1 construct: SARA; plasmid pCMV5b-Flag-SARA; also called SARA FL; source: HEK-293, transfected, in lysate
T1 sequence (looked up): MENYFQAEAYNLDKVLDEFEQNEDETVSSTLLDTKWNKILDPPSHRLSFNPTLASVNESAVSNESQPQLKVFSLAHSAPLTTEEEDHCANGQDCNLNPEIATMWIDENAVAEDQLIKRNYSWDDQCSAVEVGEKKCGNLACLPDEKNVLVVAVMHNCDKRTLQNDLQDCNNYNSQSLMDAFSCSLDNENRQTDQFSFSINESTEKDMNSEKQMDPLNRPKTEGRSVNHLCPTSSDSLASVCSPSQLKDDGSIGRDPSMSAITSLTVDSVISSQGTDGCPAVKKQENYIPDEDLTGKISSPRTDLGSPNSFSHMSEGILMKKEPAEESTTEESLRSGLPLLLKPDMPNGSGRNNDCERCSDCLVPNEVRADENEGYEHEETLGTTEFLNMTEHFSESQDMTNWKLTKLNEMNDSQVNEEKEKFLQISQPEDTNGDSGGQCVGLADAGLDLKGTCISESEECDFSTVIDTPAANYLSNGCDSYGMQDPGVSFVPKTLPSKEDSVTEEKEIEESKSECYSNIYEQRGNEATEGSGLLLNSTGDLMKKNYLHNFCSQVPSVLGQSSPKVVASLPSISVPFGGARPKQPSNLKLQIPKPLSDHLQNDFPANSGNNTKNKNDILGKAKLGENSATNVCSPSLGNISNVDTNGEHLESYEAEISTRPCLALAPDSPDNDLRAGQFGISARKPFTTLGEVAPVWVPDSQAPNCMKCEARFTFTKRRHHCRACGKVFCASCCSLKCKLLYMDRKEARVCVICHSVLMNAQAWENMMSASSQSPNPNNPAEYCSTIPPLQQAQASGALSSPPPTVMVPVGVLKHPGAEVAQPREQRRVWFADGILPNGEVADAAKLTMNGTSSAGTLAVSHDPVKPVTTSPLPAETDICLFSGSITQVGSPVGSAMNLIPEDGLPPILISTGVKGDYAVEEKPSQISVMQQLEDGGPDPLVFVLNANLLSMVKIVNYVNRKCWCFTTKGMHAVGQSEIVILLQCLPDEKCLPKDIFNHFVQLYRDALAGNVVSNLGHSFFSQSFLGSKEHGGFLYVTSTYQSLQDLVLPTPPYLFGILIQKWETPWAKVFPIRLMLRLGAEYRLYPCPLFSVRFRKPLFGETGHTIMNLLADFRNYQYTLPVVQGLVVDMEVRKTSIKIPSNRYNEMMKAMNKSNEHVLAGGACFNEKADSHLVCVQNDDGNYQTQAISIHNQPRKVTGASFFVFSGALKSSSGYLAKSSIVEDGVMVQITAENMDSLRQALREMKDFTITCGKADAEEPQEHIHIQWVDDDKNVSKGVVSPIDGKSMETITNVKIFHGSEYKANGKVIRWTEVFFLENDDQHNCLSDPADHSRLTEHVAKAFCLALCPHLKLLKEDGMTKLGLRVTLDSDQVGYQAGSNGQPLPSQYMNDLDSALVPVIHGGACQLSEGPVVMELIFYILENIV

In assay [2] the target is T2, SARA Smad-binding domain (amino acids 665–721) on the 3xFlag-thioredoxin scaffold (UniProt O95405 767-823).
T2 construct: SARA, amino acids 665–721; cloned into the unique RsrII site of pCI-3xFLAG-Trx; also called SARA aa665–721; TrxSARA; source: HEK-293, transfected, in lysate
T2 sequence (looked up): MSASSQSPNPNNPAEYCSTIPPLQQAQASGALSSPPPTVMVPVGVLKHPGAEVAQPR

Assay [3] has as its target T3, Ski Smad-binding domain (amino acids 2–56) on the 3xFlag-thioredoxin scaffold (UniProt P12755 2-56).
T3 construct: Ski, amino acids 2–56; cloned into the unique RsrII site of pCI-3xFLAG-Trx; also called Ski aa2–56; TrxSki; source: HEK-293, transfected, in lysate
T3 sequence (looked up): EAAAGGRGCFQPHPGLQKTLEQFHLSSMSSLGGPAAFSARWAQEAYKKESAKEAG

B1: Renilla luciferase-Smad3 D408H (natural protein, UniProt P84022 1-425, looked up)
chain: MSSILPFTPPIVKRLLGWKKGEQNGQEEKWCEKAVKSLVKKLKKTGQLDELEKAITTQNVNTKCITIPRSLDGRLQVSHRKGLPHVIYCRLWRWPDLHSHHELRAMELCEFAFNMKKDEVCVNPYHYQRVETPVLPPVLVPRHTEIPAEFPPLDDYSHSIPENTNFPAGIEPQSNIPETPPPGYLSEDGETSDHQMNHSMDAGSPNLSPNPMSPAHNNLDLQPVTYCEPAFWCSISYYELNQRVGETFHASQPSMTVDGFTDPSNSERFCLGLLSNVNRNAAVELTRRHIGRGVRLYYIGGEVFAECLSDSAIFVQSPNCNQRYGWHPATVCKIPPGCNLKIFNNQEFAALLAQSVNQGFEAVYQLTRMCTIRMSFVKGWGAEYRRQTVTSTPCWIELHLNGPLQWLHKVLTQMGSPSIRCSSVS
notes: Smad3; source: HEK-293, transfected together with constitutively active Alk5, in lysate
As to B1, the “percent binding relative to wild-type Smad3” value in assay [1] worked out at 168%.

B2: Renilla luciferase-Smad3 R268A (natural protein, UniProt P84022 1-425, looked up)
chain: MSSILPFTPPIVKRLLGWKKGEQNGQEEKWCEKAVKSLVKKLKKTGQLDELEKAITTQNVNTKCITIPRSLDGRLQVSHRKGLPHVIYCRLWRWPDLHSHHELRAMELCEFAFNMKKDEVCVNPYHYQRVETPVLPPVLVPRHTEIPAEFPPLDDYSHSIPENTNFPAGIEPQSNIPETPPPGYLSEDGETSDHQMNHSMDAGSPNLSPNPMSPAHNNLDLQPVTYCEPAFWCSISYYELNQRVGETFHASQPSMTVDGFTDPSNSEAFCLGLLSNVNRNAAVELTRRHIGRGVRLYYIGGEVFAECLSDSAIFVQSPNCNQRYGWHPATVCKIPPGCNLKIFNNQEFAALLAQSVNQGFEAVYQLTRMCTIRMSFVKGWGAEYRRQTVTSTPCWIELHLNGPLQWLDKVLTQMGSPSIRCSSVS
notes: as for B1
With B2, the “percent binding relative to wild-type Smad3” value in assay [1] was 159%; in assay [2], 116%; in assay [3], 2%.

B3: Renilla luciferase-Smad3 R243A (natural protein, UniProt P84022 1-425, looked up)
chain: MSSILPFTPPIVKRLLGWKKGEQNGQEEKWCEKAVKSLVKKLKKTGQLDELEKAITTQNVNTKCITIPRSLDGRLQVSHRKGLPHVIYCRLWRWPDLHSHHELRAMELCEFAFNMKKDEVCVNPYHYQRVETPVLPPVLVPRHTEIPAEFPPLDDYSHSIPENTNFPAGIEPQSNIPETPPPGYLSEDGETSDHQMNHSMDAGSPNLSPNPMSPAHNNLDLQPVTYCEPAFWCSISYYELNQAVGETFHASQPSMTVDGFTDPSNSERFCLGLLSNVNRNAAVELTRRHIGRGVRLYYIGGEVFAECLSDSAIFVQSPNCNQRYGWHPATVCKIPPGCNLKIFNNQEFAALLAQSVNQGFEAVYQLTRMCTIRMSFVKGWGAEYRRQTVTSTPCWIELHLNGPLQWLDKVLTQMGSPSIRCSSVS
notes: as for B1
On to B3, for which the “percent binding relative to wild-type Smad3” value in assay [1] is 181%; in assay [2] it was 72%; in assay [3], 3%.

B4: Renilla luciferase-Smad3 Y384A (natural protein, UniProt P84022 1-425, looked up)
chain: MSSILPFTPPIVKRLLGWKKGEQNGQEEKWCEKAVKSLVKKLKKTGQLDELEKAITTQNVNTKCITIPRSLDGRLQVSHRKGLPHVIYCRLWRWPDLHSHHELRAMELCEFAFNMKKDEVCVNPYHYQRVETPVLPPVLVPRHTEIPAEFPPLDDYSHSIPENTNFPAGIEPQSNIPETPPPGYLSEDGETSDHQMNHSMDAGSPNLSPNPMSPAHNNLDLQPVTYCEPAFWCSISYYELNQRVGETFHASQPSMTVDGFTDPSNSERFCLGLLSNVNRNAAVELTRRHIGRGVRLYYIGGEVFAECLSDSAIFVQSPNCNQRYGWHPATVCKIPPGCNLKIFNNQEFAALLAQSVNQGFEAVYQLTRMCTIRMSFVKGWGAEARRQTVTSTPCWIELHLNGPLQWLDKVLTQMGSPSIRCSSVS
notes: as for B1
B4: the “percent binding relative to wild-type Smad3” value in assay [1] came out at 178%; in assay [2] it was 119%; in assay [3], 3%.

B5: Renilla luciferase-Smad3 R292A (natural protein, UniProt P84022 1-425, looked up)
chain: MSSILPFTPPIVKRLLGWKKGEQNGQEEKWCEKAVKSLVKKLKKTGQLDELEKAITTQNVNTKCITIPRSLDGRLQVSHRKGLPHVIYCRLWRWPDLHSHHELRAMELCEFAFNMKKDEVCVNPYHYQRVETPVLPPVLVPRHTEIPAEFPPLDDYSHSIPENTNFPAGIEPQSNIPETPPPGYLSEDGETSDHQMNHSMDAGSPNLSPNPMSPAHNNLDLQPVTYCEPAFWCSISYYELNQRVGETFHASQPSMTVDGFTDPSNSERFCLGLLSNVNRNAAVELTRRHIGAGVRLYYIGGEVFAECLSDSAIFVQSPNCNQRYGWHPATVCKIPPGCNLKIFNNQEFAALLAQSVNQGFEAVYQLTRMCTIRMSFVKGWGAEYRRQTVTSTPCWIELHLNGPLQWLDKVLTQMGSPSIRCSSVS
notes: as for B1
For the molecule B5, the “percent binding relative to wild-type Smad3” value was 120% in assay [1], 78% in assay [2] and 4% in assay [3].

B6: Renilla luciferase-Smad3 Y238A (natural protein, UniProt P84022 1-425, looked up)
chain: MSSILPFTPPIVKRLLGWKKGEQNGQEEKWCEKAVKSLVKKLKKTGQLDELEKAITTQNVNTKCITIPRSLDGRLQVSHRKGLPHVIYCRLWRWPDLHSHHELRAMELCEFAFNMKKDEVCVNPYHYQRVETPVLPPVLVPRHTEIPAEFPPLDDYSHSIPENTNFPAGIEPQSNIPETPPPGYLSEDGETSDHQMNHSMDAGSPNLSPNPMSPAHNNLDLQPVTYCEPAFWCSISYAELNQRVGETFHASQPSMTVDGFTDPSNSERFCLGLLSNVNRNAAVELTRRHIGRGVRLYYIGGEVFAECLSDSAIFVQSPNCNQRYGWHPATVCKIPPGCNLKIFNNQEFAALLAQSVNQGFEAVYQLTRMCTIRMSFVKGWGAEYRRQTVTSTPCWIELHLNGPLQWLDKVLTQMGSPSIRCSSVS
notes: as for B1
With B6, the “percent binding relative to wild-type Smad3” value was determined as 162% in assay [1], 74% in assay [2] and 2% in assay [3].
